Assay results as given in patent publication US20240383990A1 (DIAGONAL THERAPEUTICS, published 2024).

B1: PRO005 (bispecific antibody)
chain: EVQLLESGGGLVQPGGSLRLSCAASGFTFSSYAMSWVRQAPGKGLEWVANINQDGSEKNYVDSMRGRFTISRDNSKNTLYLQMNSLRAEDTAVYYCAREFDYWGQGTLVTVTSSGGGGSGGGGSGGGGSQSVLAQPPSASGTPGQRVTISCSGSSSNIGSNYVYWYQQLPGTAPKLLIYGNNKRPSGVPDRFSGSKSGTSASLAISGLRSEDEADYYCAAWDDSLNGRVFGGGTKLTVLDKTHTCPPCPAPEAAGAPSVFLFPPKPKDTLMISRTPEVTCVVVDVSHEDPEVKFNWYVDGVEVHNAKTKPREEQYNSTYRVVSVLTVLHQDWLNGKEYKCKVSNKALPAPIEKTISKAKGQPREPQVYTLPPSRDELTKNQVSLTCLVKGFYPSDIAVEWESNGQPENNYKTTPPVLDSDGSFFLYSKLTVDKSRWQQGNVFSCSVMHEALHNHYTQKSLSLSPGGGGGSGGGGSEVQLLESGGGLVQPGGSLRLSCAASGFTFSDYYMTWIRQAPGKGLEWVSSISGGSTYYADSRKGRFTISRDNSENTLYLQMNSLRAEDTAVYYCARDFGVAGWFGQYGMDVWGQGTLVTVSSGGGGSGGGGSGGGGSQSVLTQPPSASGTPGQRVTISCTGSSSNIGAGYDVHWYQQLPGTAPKLLIYRSNQRPSGVPDRFSGSKSGTSASLAISGLRSEDEADYYCSSYAGNYNLVFGGGTKLTVL
B2: PRO004 (bispecific antibody)
chain: EVQLLESGGGLVQPGGSLRLSCAASGFTFSNAWMNWVRQAPGKGLEWVSSISSSSSYIYYADSVKGRFTISRDNSKNTLYLQMNSLRAEDTAVYYCARAVAAGGMFWGLDQWGQGTLVTVTSSGGGGSGGGGSGGGGSQSVLTQPPSASGTPGQRVTISCSGSRSNIGSNSVHWYQQLPGTAPKLLIYGNSNRPSGVPDRFSGSKSGTSASLAISGLRSEDEADYYCQSYDSSLNDHVVFGGGTKLTVLDKTHTCPPCPAPEAAGAPSVFLFPPKPKDTLMISRTPEVTCVVVDVSHEDPEVKFNWYVDGVEVHNAKTKPREEQYNSTYRVVSVLTVLHQDWLNGKEYKCKVSNKALPAPIEKTISKAKGQPREPQVYTLPPSRDELTKNQVSLTCLVKGFYPSDIAVEWESNGQPENNYKTTPPVLDSDGSFFLYSKLTVDKSRWQQGNVFSCSVMHEALHNHYTQKSLSLSPGGGGGSGGGGSEVQLLESGGGLVQPGGSLRLSCAASGFTFSIYAMSWVRQAPGKGLEWVSAISGSGGSTYYADSVKGRFTISRDNSKNTLYLQMNSLRAEDTAVYYCARDFDYWGQGTLVTVTSSGGGGSGGGGSGGGGSQSVLTQPPSASGTPGQRVTISCSGSSSNIGSNYVYWYQQLPGTAPKLLIYGNINRPSGVPDRFSGSKSGTSASLAISGLRSEDEADYYCAAWDDSLNGRVFGGGTKLTVL
B3: PRO003 (bispecific antibody)
chain: EVQLLESGGGLVQPGGSLRLSCAASGFTFSIYAMSWVRQAPGKGLEWVSAISGSGGSTYYADSVKGRFTISRDNSKNTLYLQMNSLRAEDTAVYYCARDFDYWGQGTLVTVTSSGGGGSGGGGSGGGGSQSVLTQPPSASGTPGQRVTISCSGSSSNIGSNYVYWYQQLPGTAPKLLIYGNINRPSGVPDRFSGSKSGTSASLAISGLRSEDEADYYCAAWDDSLNGRVFGGGTKLTVLDKTHTCPPCPAPEAAGAPSVFLFPPKPKDTLMISRTPEVTCVVVDVSHEDPEVKFNWYVDGVEVHNAKTKPREEQYNSTYRVVSVLTVLHQDWLNGKEYKCKVSNKALPAPIEKTISKAKGQPREPQVYTLPPSRDELTKNQVSLTCLVKGFYPSDIAVEWESNGQPENNYKTTPPVLDSDGSFFLYSKLTVDKSRWQQGNVFSCSVMHEALHNHYTQKSLSLSPGGGGGSGGGGSEVQLLESGGGLVQPGGSLRLSCAASGFTFSNAWMNWVRQAPGKGLEWVSSISSSSSYIYYADSVKGRFTISRDNSKNTLYLQMNSLRAEDTAVYYCARAVAAGGMFWGLDQWGQGTLVTVTSSGGGGSGGGGSGGGGSQSVLTQPPSASGTPGQRVTISCSGSRSNIGSNSVHWYQQLPGTAPKLLIYGNSNRPSGVPDRFSGSKSGTSASLAISGLRSEDEADYYCQSYDSSLNDHVVFGGGTKLTVL
B4: PRO006 (bispecific antibody)
chain: EVQLLESGGGLVQPGGSLRLSCAASGFTFSDYYMTWIRQAPGKGLEWVSSISGGSTYYADSRKGRFTISRDNSENTLYLQMNSLRAEDTAVYYCARDFGVAGWFGQYGMDVWGQGTLVTVSSGGGGSGGGGSGGGGSQSVLTQPPSASGTPGQRVTISCTGSSSNIGAGYDVHWYQQLPGTAPKLLIYRSNQRPSGVPDRFSGSKSGTSASLAISGLRSEDEADYYCSSYAGNYNLVFGGGTKLTVLDKTHTCPPCPAPEAAGAPSVFLFPPKPKDTLMISRTPEVTCVVVDVSHEDPEVKFNWYVDGVEVHNAKTKPREEQYNSTYRVVSVLTVLHQDWLNGKEYKCKVSNKALPAPIEKTISKAKGQPREPQVYTLPPSRDELTKNQVSLTCLVKGFYPSDIAVEWESNGQPENNYKTTPPVLDSDGSFFLYSKLTVDKSRWQQGNVFSCSVMHEALHNHYTQKSLSLSPGGGGGSGGGGSEVQLLESGGGLVQPGGSLRLSCAASGFTFSSYAMSWVRQAPGKGLEWVANINQDGSEKNYVDSMRGRFTISRDNSKNTLYLQMNSLRAEDTAVYYCAREFDYWGQGTLVTVTSSGGGGSGGGGSGGGGSQSVLAQPPSASGTPGQRVTISCSGSSSNIGSNYVYWYQQLPGTAPKLLIYGNNKRPSGVPDRFSGSKSGTSASLAISGLRSEDEADYYCAAWDDSLNGRVFGGGTKLTVL

What follows are binders tested against T1, ALK1 / BMPRII receptor pair (BMPR Type I receptor ALK1 and BMPR Type II receptor BMPRII) on cells (UniProt P37023 22-503; Q13873 27-1038, limits assumed) (assay: cell-based or functional assay).
T1 sequence (P37023 22-503 limits assumed, chain 1 of 2): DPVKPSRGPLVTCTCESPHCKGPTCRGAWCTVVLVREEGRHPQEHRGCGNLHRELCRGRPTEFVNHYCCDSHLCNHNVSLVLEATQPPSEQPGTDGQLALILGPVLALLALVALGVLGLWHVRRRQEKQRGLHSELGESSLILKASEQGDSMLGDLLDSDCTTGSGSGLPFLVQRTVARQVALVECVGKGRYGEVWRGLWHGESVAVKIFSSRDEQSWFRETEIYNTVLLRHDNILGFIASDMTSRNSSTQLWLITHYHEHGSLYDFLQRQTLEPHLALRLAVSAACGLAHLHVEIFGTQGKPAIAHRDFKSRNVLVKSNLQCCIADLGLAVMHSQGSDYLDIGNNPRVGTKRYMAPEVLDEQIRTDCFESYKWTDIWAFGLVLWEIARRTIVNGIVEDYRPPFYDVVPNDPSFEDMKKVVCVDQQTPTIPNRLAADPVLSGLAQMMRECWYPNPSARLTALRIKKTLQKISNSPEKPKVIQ
T1 sequence (Q13873 27-1038 limits assumed, chain 2 of 2): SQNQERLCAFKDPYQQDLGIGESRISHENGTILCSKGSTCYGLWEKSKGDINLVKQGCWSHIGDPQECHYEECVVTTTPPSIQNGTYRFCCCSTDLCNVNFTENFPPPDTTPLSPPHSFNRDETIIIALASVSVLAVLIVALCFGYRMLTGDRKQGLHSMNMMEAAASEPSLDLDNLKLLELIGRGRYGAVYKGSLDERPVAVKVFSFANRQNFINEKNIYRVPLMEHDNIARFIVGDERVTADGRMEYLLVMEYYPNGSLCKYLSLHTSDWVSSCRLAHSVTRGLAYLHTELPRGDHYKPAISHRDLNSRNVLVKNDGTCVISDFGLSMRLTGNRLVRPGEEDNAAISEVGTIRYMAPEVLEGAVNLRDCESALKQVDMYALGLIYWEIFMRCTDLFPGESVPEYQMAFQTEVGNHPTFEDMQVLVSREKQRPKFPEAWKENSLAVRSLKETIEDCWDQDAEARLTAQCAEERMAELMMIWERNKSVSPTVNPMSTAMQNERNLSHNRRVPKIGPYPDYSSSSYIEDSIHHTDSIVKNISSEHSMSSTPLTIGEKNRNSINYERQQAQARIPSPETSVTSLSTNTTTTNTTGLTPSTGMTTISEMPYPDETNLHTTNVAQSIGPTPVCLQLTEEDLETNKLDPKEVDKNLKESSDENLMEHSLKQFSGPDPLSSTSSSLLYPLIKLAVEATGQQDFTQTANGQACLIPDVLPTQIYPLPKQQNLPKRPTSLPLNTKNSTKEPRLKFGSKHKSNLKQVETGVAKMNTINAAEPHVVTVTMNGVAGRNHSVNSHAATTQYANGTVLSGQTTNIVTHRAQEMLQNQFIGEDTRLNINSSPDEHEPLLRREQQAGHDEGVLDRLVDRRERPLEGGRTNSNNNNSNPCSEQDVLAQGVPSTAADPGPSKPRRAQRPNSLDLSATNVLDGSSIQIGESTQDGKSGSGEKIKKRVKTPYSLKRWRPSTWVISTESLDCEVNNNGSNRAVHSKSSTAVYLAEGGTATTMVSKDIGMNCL

Point of comparison: B2, “Agonist activity, % Emax BMP9” value 46 % Emax BMP9. Against it:
- B1 — lower, 35 % Emax BMP9
- B3 — higher, 47 % Emax BMP9
- B4 — lower, 35 % Emax BMP9

Point of comparison: B3, “Agonist activity, EC50” value 0.1 nM. Against it:
- B1 — within 1.5-fold, 0.075 nM
- B2 — 5-fold higher, 0.5 nM
- B4 — the same, 0.1 nM

Point of comparison: B3, “Agonist activity, EMAX (RLU)” value 1.25e+06 RLU. Against it:
- B1 — lower, 931000 RLU
- B2 — lower, 1.21e+06 RLU
- B4 — lower, 929000 RLU

Molecular target: T1, ALK1 / BMPRII receptor pair (BMPR Type …)
Experiment: cell-based or functional assay
Remark: another data set of the same source

Point of comparison: B1, “Agonist activity, % Emax BMP9” value 35 % Emax BMP9. Against it:
- B2 — higher, 46 % Emax BMP9
- B3 — higher, 47 % Emax BMP9
- B4 — the same, 35 % Emax BMP9

Point of comparison: B1, “Agonist activity, EC50” value 0.075 nM. Against it:
- B2 — 6.7-fold higher, 0.5 nM
- B3 — within 1.5-fold, 0.1 nM
- B4 — within 1.5-fold, 0.1 nM

Point of comparison: B3, “Agonist activity, EMAX (RLU)” value 1.25e+06 RLU. Against it:
- B1 — lower, 931000 RLU
- B2 — lower, 1.21e+06 RLU
- B4 — lower, 929000 RLU
